Measured values taken from patent US20180010117.

Assays:
Assay in all cases: cell_activity
[1] = test system: ZFN SBS#61028 (engineered); settings: paired with 61033, K562, 800 ng RNA each; 54.3 at 200 ng; with 61035 68.7
[2] = test system: ZFN SBS#61029 (engineered); settings: paired with 61033, K562, 800 ng RNA each; 76.9 at 200 ng; with 61035 80.7
[3] = test system: ZFN SBS#61034 (engineered); settings: paired with 61041, K562, 800 ng RNA each; 9.6 at 200 ng; with 61042 26.1
[4] = test system: ZFN SBS#61036 (engineered); settings: paired with 61041, K562, 800 ng RNA each; 14.5 at 200 ng; with 61042 40.6
[5] = test system: ZFN SBS#61033 (engineered); settings: paired with 61029, K562, 800 ng RNA each; 76.9 at 200 ng; with 61028 73.5
[6] = test system: ZFN SBS#61035 (engineered); settings: paired with 61029, K562, 800 ng RNA each; 63.6 at 200 ng; with 61028 68.7
[7] = test system: ZFN SBS#61027 (engineered); settings: paired with 61024, K562, 800 ng RNA each; 4.5 at 200 ng
[8] = test system: ZFN SBS#61041 (engineered); settings: paired with 61036, K562, 800 ng RNA each; 14.5 at 200 ng; with 61034 30.1
[9] = test system: ZFN SBS#61042 (engineered); settings: paired with 61036, K562, 800 ng RNA each; 12.9 at 200 ng; with 61034 26.1

## TGGCCCCAGTTGTAATTGTGAATATCTC (double strand) [CEP290 site of 61028/61029]
[1]
  activity: 73.5 % indels
[2]
  activity: 85.4 % indels

## CCCCAGTTGTAATTGTGAATATCTCATA (double strand) [CEP290 site of 61034/61036]
[3]
  activity: 30.1 % indels
[4]
  activity: 43.6 % indels

## CCAATAGGGATAGGTATGAGATATTCAC (double strand) [CEP290 site of 61033/61035]
[5]
  activity: 85.4 % indels
[6]
  activity: 80.7 % indels

## TAGGGATAGGTATGAGATATTCACAATT (double strand) [CEP290 site of 61027]
[7]
  activity: 27.1 % indels

## CCAATAGGGATAGGTATGAGATATTCAC (double strand) [CEP290 site of 61041/61042]
[8]
  activity: 43.6 % indels
[9]
  activity: 40.6 % indels
